Legend:
Experiment in all cases: Yeast surface display (YSD) FACS binding
[1] = biological target: T1, CCL19_HUMAN (Homo sapiens, UniProt Q99731)
T1 sequence (Q99731 22-98): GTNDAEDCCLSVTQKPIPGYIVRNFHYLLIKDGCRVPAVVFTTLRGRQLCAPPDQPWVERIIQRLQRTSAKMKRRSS
In short: (§1)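 Yeast clones displaying tick peptides were re-tested by FACS with labelled chemokine. Binding = % of peptide-expressing yeast above a background threshold set with streptavidin-Alexa647 alone; the mean percent shift was used where several clones were isolated. Confirmed binding ("YES") required >3-fold over background mean fluorescence intensity.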

[2] = biological target: T2, CCL5_HUMAN (Homo sapiens, UniProt P13501)
T2 sequence (P13501 24-91): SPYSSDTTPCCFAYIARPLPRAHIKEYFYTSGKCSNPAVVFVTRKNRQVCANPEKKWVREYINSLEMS
In short: as §1

[3] = biological target: T3, CCL15_HUMAN (Homo sapiens, UniProt Q16663)
T3 sequence (Q16663 22-113): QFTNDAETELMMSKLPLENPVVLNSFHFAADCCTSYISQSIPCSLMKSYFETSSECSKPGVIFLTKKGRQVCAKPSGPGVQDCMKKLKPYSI
In short: as §1

[4] = biological target: T4, CCL25_HUMAN (Homo sapiens, UniProt O15444)
T4 sequence (O15444 24-150): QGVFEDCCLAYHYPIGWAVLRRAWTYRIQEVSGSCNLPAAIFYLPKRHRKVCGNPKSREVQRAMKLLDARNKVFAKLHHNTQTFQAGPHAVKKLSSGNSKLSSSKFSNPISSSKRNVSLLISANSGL
In short: as §1

B1: P1006_AMBCA: tick CKBP, Amblyomma cajennense (protein)
chain: DTIGGIPGCGDPATTSAPEDQPKHYAVRTDKNGCKVMVIGTWMTKEDHNLLPPYISKERAPSGKVQLPASCKKNCHGKLKNLPNGTPCREVFGDLRRRRKHIKDGCKVGKCQNGLCVSEERIISCYLPPNITDPRPTHGPLAE
modifications: Amblyomma cajennense
Binding to CCL19_HUMAN, YSD [1]: YES (An arbitrary threshold of >3 fold over background mean fluorescence intensity was chosen to describe confirmed re-tests. Where binding was detected data are indicated as “YES”) | Binding to CCL5_HUMAN, YSD [2]: YES (An arbitrary threshold of >3 fold over background mean fluorescence intensity was chosen to describe confirmed re-tests. Where binding was detected data are indicated as “YES”) | Binding to CCL15_HUMAN, YSD [3]: YES (An arbitrary threshold of >3 fold over background mean fluorescence intensity was chosen to describe confirmed re-tests. Where binding was detected data are indicated as “YES”) | Binding to CCL25_HUMAN, YSD [4]: YES (An arbitrary threshold of >3 fold over background mean fluorescence intensity was chosen to describe confirmed re-tests. Where binding was detected data are indicated as “YES”)

From US20200247855A1, “THERAPY AND DIAGNOSTICS” (OXFORD UNIVERSITY INNOVATION LIMITED, priority 2017, published 2020)
